Measured values from the supplement of paper PMC12042874.
± gives the uncertainty stated by the source.

assay: amyloid nucleation score (Sup35N fusion, yeast selection) (log enrichment); library NNK2; higher = more nucleation; inactive = no reads after selection
Procedure, shortened: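 The nucleation score is the log enrichment of output over input reads, calculated with DiMSum and centred on the mode score of non-aggregating sequences. Sequences with under 100 input reads were excluded. Reads came from Illumina sequencing of plasmid inserts from psi-negative yeast expressing Sup35N fused to peptides of 20 random codons, induced 24 hours with 100 μM copper sulfate and grown 7 days at 30°C without adenine and uracil.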

In order of rising amyloid nucleation score:
1. IFNVRRVLHFIIYVSDIPLD  -1.89 ± 0.78
2. IFSEGSTSSGSFGTKL  -1.6 ± 0.61
3. HVGVHSNFLQIS  -1.34 ± 1
4. IFPEL  -1.11 ± 0.45
5. IDDCVKGKTPGNSGNMFCLP  -1.06 ± 0.42
6. HNGVIVIDCWRRKFHPNVIS  -0.922 ± 1
7. IDFLM  -0.744 ± 0.39
8. HYCVIEKRSHIG  -0.739 ± 0.64
9. IDSSGEYIVLRGYMYMRFRL  -0.72 ± 0.4
10. HSFLPRGHVADYNKLPVWSV  -0.707 ± 0.61
11. HYFRIAIL  -0.667 ± 0.45
12. HTRLHKGIQRVEIGSMNGK  -0.637 ± 1.1
13. HYITKFSYDLGRKAKALVLS  -0.626 ± 0.54
14. ICSSYALGQSTETG  -0.559 ± 0.76
15. IGIAKYLREGRSSPTESL  -0.5 ± 0.33
16. IACYMMGLRLL  -0.414 ± 0.41
17. IDHYLVLASLDW  -0.41 ± 0.47
18. HVVMFS  -0.38 ± 0.76
19. HQFYHFAEENN  -0.249 ± 1
20. HQRYSRLLIKKCYTSASVPC  -0.245 ± 0.62
21. HYLPT  -0.208 ± 0.35
22. HQAWSCSTVGFDLAVVNFAD  -0.197 ± 0.43
23. HPMLLMKNARG  -0.086 ± 0.27
24. IATHHTDESAG  -0.083 ± 0.79
25. IDDDHLEHEVNGSRRCKMRW  -0.055 ± 1.1
26. ICVRERNRSYRMPFMMFVVR  -0.017 ± 1
27. HSYITG  0.018 ± 0.19
28. HRDGLPVVTL  0.034 ± 1.1
29. IFCADMVLNFGGMCPARERA  0.038 ± 0.8
30. HWTSFKSGNALGMCETI  0.076 ± 0.41
31. HVNGL  0.098 ± 0.5
32. IDGYIQGFHGIRLEQLGGVE  0.152 ± 0.48
33. IFVGVNCIQKISKRYGWYLC  0.214 ± 0.77
34. HSTIAVSCY  0.219 ± 1
35. IAIRFIDDYCGFRGV  0.288 ± 0.8
36. ICISGAFNVTAHLKLAQASL  0.295 ± 1
37. HVLSLGAGWKYVGVDECKE  0.317 ± 0.31
38. HSMSYFDYAIRLDRVGDVIS  0.339 ± 0.38
39. HQLPVHEPYEYWLQQGSNCP  0.353 ± 0.56
40. HNLEWKNRNQTWSSLTPIVW  0.384 ± 0.44
41. IADIVEHCCAVRVCALGGLM  0.393 ± 0.8
42. HPTLEPGKHYLRVSKSNTSR  0.404 ± 0.26
43. IFWVVEFWIYYTSFLSWETR  0.455 ± 0.51
44. ICLVLCRGSDA  0.554 ± 0.74
45. IDSYLNTSKASRVPCDLRAL  0.67 ± 0.81
46. HRTGWKIFVSW  0.732 ± 0.17
47. HNYIWARTRSRGRPMYSVPA  0.798 ± 0.33
48. ICTALGGWWSKEVMSADMFL  0.811 ± 0.67
49. HRRCMFQNTAMRHRQWDA  0.841 ± 0.44
50. IDILWVRVNAFLSVVEIRSN  0.949 ± 0.15
51. HTFITVPASGRAATLCTSED  1.14 ± 0.12
52. HVAESHMS  1.16 ± 0.43
53. IGESLRYIRRVILSMIFHLA  1.18 ± 0.66
54. HSRLLCWANVDLERFSEWSG  1.46 ± 0.23
55. IEGQGLIVCNGDCTGRPNLR  1.69 ± 0.39
56. HRLVGTC  1.86 ± 0.21
57. HSMQSVPKWKL  1.86 ± 0.25
58. HRASRMCGINLARPTVMVVT  1.9 ± 0.12
59. HSGFADFGRMEMIRDPTGRD  1.96 ± 0.15
60. HRMRVSIGATYVTALYQVKD  3.18 ± 0.095
61. HNVYMVFYFAFFSPFMIRYI  3.44 ± 0.088
62. IFCWL  3.51 ± 0.047
63. HNYMLVILHRDSPNLNLGHS  3.94 ± 0.12
64. IAACLFYNRSVNIFTGVDGL  4.09 ± 0.14
65. HYRSFVDFITGWLVSFATEP  4.28 ± 0.054
66. IEVFDIWCPAGFVMEALRFV  4.28 ± 0.099
67. IAGLTISSAISGSWDVVKPS  4.38 ± 0.052
68. IEYRNMLMLSCFNKYMDCLN  4.45 ± 0.055
69. HPRTPGLVIEDKKNLFLVWR  5.22 ± 0.057
70. ICFGGTLSWSCVVAILNLSN  5.616 ± 0.027
71. HNVEGRDRVVLMFSIKCCML  5.92 ± 0.061
72. HRNNQMQCVFAFLW  7.199 ± 0.053
73. IFYKPVFSLFVIGSRMNGGI  7.29 ± 0.054
74. IAHCCFGQF  7.634 ± 0.074
75. ICCGVEHWYVIGFNVGSFYF  7.964 ± 0.039

For HRTVRFP, the amyloid nucleation score was “inactive”.
In the case of HSWVFLWRGNCSFWRDSFKV, the amyloid nucleation score is reported as “inactive”.
For HTSFIMYMYHSRIWHGMYQT, the amyloid nucleation score was “inactive”.
With IDLMKLCFLLYSIGFFLPTH the amyloid nucleation score was “inactive”.
With IDRGTFVLGFYRYKYNYFFK the amyloid nucleation score was “inactive”.
For IEGREGCARDNKGYYTALLL, the amyloid nucleation score was “inactive”.
For IFDQVNSRYRYAVGYGKW, the amyloid nucleation score was “inactive”.
In the case of IFNVKRGILVTSVFDNVQVW, the amyloid nucleation score is reported as “inactive”.
With IFNWECMDAFFSLK the amyloid nucleation score was “inactive”.
In the case of IFVNILNWLSVVRSSGFGSV, the amyloid nucleation score is reported as “inactive”.
